Results published in US20260263521A1 (AIMED BIO, published 2026).
Positions count from the first letter of the chain named. Names may count otherwise.

T1: human CD200R1 recombinant protein (construct not stated) (human, UniProt Q8TD46 27-266, limits assumed)
T1 sequence (looked up): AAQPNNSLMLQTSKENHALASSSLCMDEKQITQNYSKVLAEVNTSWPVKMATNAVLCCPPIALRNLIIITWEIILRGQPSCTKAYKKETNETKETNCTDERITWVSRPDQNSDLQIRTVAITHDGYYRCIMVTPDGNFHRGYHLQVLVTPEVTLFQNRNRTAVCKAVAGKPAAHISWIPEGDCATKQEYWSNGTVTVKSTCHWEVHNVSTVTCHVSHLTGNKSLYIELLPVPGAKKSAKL

T2: human CD200R1 expressed on cells (Jurkat-CD200R1, U937-CD200R1, HH cells) (human, UniProt Q8TD46 25-348)
T2 construct: whole, on cells; also called HH (CRL-2105); cell surface-expressed CD200R1
T2 sequence (looked up): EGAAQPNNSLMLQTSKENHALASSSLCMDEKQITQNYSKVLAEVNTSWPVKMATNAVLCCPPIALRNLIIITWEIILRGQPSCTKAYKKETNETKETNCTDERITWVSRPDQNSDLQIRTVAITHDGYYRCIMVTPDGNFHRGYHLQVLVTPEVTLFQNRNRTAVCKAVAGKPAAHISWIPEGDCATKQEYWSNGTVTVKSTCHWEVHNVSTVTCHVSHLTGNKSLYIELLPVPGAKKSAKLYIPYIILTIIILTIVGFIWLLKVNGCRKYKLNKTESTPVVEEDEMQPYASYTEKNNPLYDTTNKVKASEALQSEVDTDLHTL

T3: human CD200RLa (Sino Biological, 11620-H08H) recombinant protein (human, UniProt Q6Q8B3 24-239)
T3 construct: Bought; construct not described
T3 sequence (looked up): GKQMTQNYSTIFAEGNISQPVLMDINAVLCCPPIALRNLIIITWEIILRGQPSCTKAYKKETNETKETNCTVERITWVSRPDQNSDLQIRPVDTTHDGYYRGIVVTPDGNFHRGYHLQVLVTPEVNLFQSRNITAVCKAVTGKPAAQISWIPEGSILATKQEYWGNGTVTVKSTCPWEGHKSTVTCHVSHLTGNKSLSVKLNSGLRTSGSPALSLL

T4: mouse CD200R1 protein (R&D systems, 2554-CD) (mouse, UniProt Q9ES57 26-238, limits assumed)
T4 construct: Bought; construct not described
T4 sequence (looked up): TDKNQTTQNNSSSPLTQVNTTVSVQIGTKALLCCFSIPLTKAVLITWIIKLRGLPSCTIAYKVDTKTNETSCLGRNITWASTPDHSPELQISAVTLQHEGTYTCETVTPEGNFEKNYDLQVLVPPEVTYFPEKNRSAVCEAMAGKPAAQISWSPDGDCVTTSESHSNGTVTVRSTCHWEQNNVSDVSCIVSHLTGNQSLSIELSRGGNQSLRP

B1: 6A8 (hybridoma clone) (antibody, V domains shown)
VH: QVQLQQPGAELVKPGAPVKLSCKASGYTFTSYWMNWVKQRPGRGLEWIGRIDPSDSETHYNQKFKDKATLTVDKSSSTAYIQLSSLTSEDSAVYYCARSGGWLPGFAYWGQGTLVTVSA
VL: ENVLTQSPAIMSASPGEKVTMTCSASSSLSYMLWYQQKSSTSPKLWIYDTSKLASGVPGRFSGSGSGNSYSLTISSMEAEDVGTYYCFQGSGNPLMYTFGGGTKLEIK
B2: 1F1 (hybridoma clone) (antibody, V domains shown)
VH: B1 VH with L11F, S54A, T58I, L83F
VL: B1 VL with S30I, L33H, S75N, G83A, N93Y
B3: 3G4 (hybridoma clone) (antibody, V domains shown)
VH: B1 VH with Y27F, F29L, S84T
VL: B1 VL with S26R, L29V, L33H, S40R, G83A, N93D
B4: 6C3 (hybridoma clone) (antibody, V domains shown)
VH: QVQLQQPGAELVRPGASVKLSCKASAYTFTSYWMNWVKQRPEQGLEWIGRIDPYDSETHYNQKFKDKAILTVDKSSSTAYMQLSSLTSEDSAVYYCARVDGNHLFDYWGQGTTLTVSS
VL: DIKMTQSPSSMYASLGERVTITCKASQDINSYLSWFQQKPGKSPKTLIYRANRLVDGVPSRFSGSGSGQDYSLTISSLEYEDMGIYYCLQYDEFPYTFGGGTKLEIK
B5: 5E9 (hybridoma clone) (antibody, V domains shown)
VH: QVQLQQSGAELARPGASVKLSCKASGYTFTSYWMQWVKQRPGQGLEWIGAIYPGDGDTRYTQKFKGKATLTADKSSSTAYMQLRSLASEDSAVFYCARGGVTTLVPYFFDYWGQGATLTVSS
VL: DVLMTQTPLSLPVSLGDQASISCRSSQSIVHSNGNTYLEWYLQKPGQSPKLLIYKVSNRFSGVPDRFSGSGSGTDFTLKISRVEAEDLGVYYCFQGSHVPPTFGGGTKLEIK
B6: P001018 scFv mutant H3-Y102K (scFv)
scFv: QVQLVQSGAEVKKPGASVKVSCKASGYTFTSYVMHWVRQAPGQGLEWMGYINPYNDDTNYNEKFKGRVTMTRDTSTSTVYMELSSLRSEDTAVYYCAREDYYGSRWGKWGQGTLVTVSSGGGGSGGGGSGGGGSDIVLTQSPASLAVSPGQRATITCRASKSVSTSGYSYMHWYQQKPGQPPKLLIYLASNLESGVPARFSGSGSGTDFTLTINPVEANDTANYYCQHSRELLTFGQGTKVEIK
B7: P001018 scFv mutant L3-L94H (scFv)
scFv: B6 scFv with K108Y, L232H
B8: P001018 scFv mutant H3-Y102T (scFv)
scFv: B6 scFv with K108T
B9: P001018 scFv mutant L3-R92S (scFv)
scFv: B6 scFv with K108Y, R230S
B10: P001018 scFv mutant L3-L94S (scFv)
scFv: B6 scFv with K108Y, L232S
B11: P001018 scFv mutant L3-T96R (scFv)
scFv: B6 scFv with K108Y, T234R
B12: P001018 scFv mutant L3-L95D (scFv)
scFv: B6 scFv with K108Y, L233D
B13: P001018 scFv mutant L3-R92H (scFv)
scFv: B6 scFv with K108Y, R230H
B14: P001013 (IgG) (antibody, V domains shown)
VH: EVQLLESGGGLVQPGGSLRLSCAASGFTFSGYDMSWVRQAPGKGLEWVSGIPPGDGSTYYADSVKGRFTISRDNSKNTLYLQMNSLRAEDTAVYYCAKHLVSDHPPSQYSDDGMDVWGQGTLVTVSS
VL: QSVLTQPPSASGTPGQRVTISCSGSSSNIGNNDVNWYQQLPGTAPKLLIYYNSQRPSGVPDRFSGSKSGTSASLAISGLRSEDEADYYCGSWDYSLNGYVFGGGTKLTVL
B15: P001017 (chimeric OX108) (antibody, V domains shown)
VH: EVKLQQSGPELVKPGASVKMSCKASGYTFTSYVMHWVKQKPGQGLEWIGYINPYNDDTNYNEKFKGKATLTSDKSSSTAYMELSSLTSEDSAVYYCAREDYYGSRWGYWGQGTTLTVSS
VL: DIVLTQSPASLAVSLGQRATISCRASKSVSTSGYSYMHWYQQKPGQPPKLLIYLASNLESGVPARFSGSGSGTDFTLNIHPVEEEDAATYYCQHSRELLTFGAGTKLELK
notes: also called QX108; murine anti-CD200R1 antibody OX108

Each binder was assayed against T1, human CD200R1 recombinant protein … (assay: hybridoma ELISA on human CD200R1).

| Binder | ELISA O.D. [O.D.] |
| --- | --- |
| B1 | ≥ 1.5 |
| B2 | ≥ 1.5 |
| B3 | ≥ 1.5 |
| B4 | ≥ 1.5 |
| B5 | ≥ 1.5 |

The binders below were run against T2, human CD200R1 expressed on cells … (assay: flow cytometry, HH cells; drawn table, row EC50).

| Binder | EC50 [nM] |
| --- | --- |
| B6 | 9.79 |
| B7 | 9.4 |
| B8 | 9.43 |
| B9 | 7.76 |
| B10 | 9.52 |
| B11 | 7.26 |
| B12 | 13.1 |
| B13 | 6.14 |

What follows are binders tested against T2, human CD200R1 expressed on cells … (assay: flow cytometry, HH cells; drawn table).

| Binder | Geo mean (%) at 0.05 nM [%] | Geo mean (%) at 0.19 nM [%] | Geo mean (%) at 0.78 nM [%] | Geo mean (%) at 3.125 nM [%] | Geo mean (%) at 12.5 nM [%] | Geo mean (%) at 50 nM [%] | Geo mean (%) at 200 nM [%] | Geo mean (%) at 800 nM [%] |
| --- | --- | --- | --- | --- | --- | --- | --- | --- |
| B6 | 2.1 | 6.1 | 17.1 | 35.3 | 67 | 85.7 | 104 | 120 |
| B7 | 2.2 | 5.6 | 18.5 | 35.3 | 59.1 | 75.2 | 96.7 | 105 |
| B8 | 2 | 5.8 | 15.5 | 33.2 | 69.7 | 91.6 | 107 | 121 |
| B9 | 1.7 | 4.5 | 12 | 33.9 | 73.2 | 90.1 | 108 | 116 |
| B10 | 1.8 | 5.9 | 17.3 | 35.5 | 62 | 76.6 | 98.7 | 110 |
| B11 | 2.7 | 7.5 | 19.4 | 40.2 | 79.5 | 91.1 | 116 | 123 |
| B12 | 2 | 5.6 | 16.4 | 35.6 | 73.8 | 95.3 | 119 | 145 |
| B13 | 3.3 | 8.7 | 19.8 | 43.8 | 84.1 | 100 |  |  |

What follows are binders tested against T3, human CD200RLa (Sino Biological, …) (assay: ELISA, plate-bound human CD200RLa (2 ug/mL), antibody 0.0192-300 nM, O.D 450 nm; panel 'recombinant human CD200RLa').
Protocol: 96-well plates were coated with human CD200RLa (Sino Biological, 11620-H08H) and monkey CD200RLa (Sino Biological, 11576-C02H) recombinant proteins at a concentration of 2 μg/mL at 4° C. for 16 hours, and blocked with 3% skim milk for 1 hour. […] Color was developed with a TMB substrate solution (Thermo Scientific, 34029, 1-Step™ Ultra TMB-ELISA Substrate Solution). The color reaction was stopped with stop solution (Invitrogen, SS04, ELISA Stop Solution).

| binding result | Binder |
| --- | --- |
| no binding (tested: 300 nM) | B14 |
| no binding (tested: 300 nM) | B15 |

What follows are binders tested against T4, mouse CD200R1 protein (R&D systems, …) (assay: ELISA, plate-bound mouse CD200R1 (2 ug/mL), IgG 0.0192-300 nM, OD 450 nm; panel 'mouse CD200R1').
Protocol: 96-well plates were coated with human CD200R1 (R&D systems, 3414-CD) and mouse CD200R1 protein (R&D systems, 2554-CD) at a concentration of 2 μg/mL at 4° C. for 16 hours and then were blocked with 3% skim milk.
Color was developed with a TMB substrate solution (Thermo Scientific, 34029, 1-Step™ TMB-ELISA Ultra Substrate Solution). The color reaction was stopped with stop solution (Invitrogen, SS04, ELISA Stop Solution). The absorbance was measured at an optical density of 450 nm.

| binding result | Binder |
| --- | --- |
| no binding (tested: 300 nM) | B14 |
